# In publication PMC4381924:
# “And” between values parts separate entries of the source, which are not always exact repeats. Equal values may be shown once.
# Key:
# IGF1R TM-fp (human) = assay: FRET or BRET; spectrally resolved two-photon FRET on living, serum-starved CHO cells; mTurquoise donor, EYFP acceptor; FRET efficiency per membrane pixel; without IGF1
# [1] = target: IGF1R ECD-TM-fp H905C (human); assay: FRET or BRET; quantitative imaging FRET (QI-FRET) in plasma-membrane vesicles derived from transiently co-transfected CHO cells; EYFP donor, mCherry acceptor; confocal microscopy at room temperature; intrinsic FRET corrected for proximity FRET and donor-to-acceptor ratio; without IGF1
# [2] = target: IGF1R TM-icd H905C (human); assay: cross-linking; disulfide bond between introduced cysteines; HEK293 cells incubated with or without IGF1, lysed in RIPA buffer with 10 mM iodoacetamide; non-reducing against reducing SDS-PAGE, anti-IGF1Rβ Western blot
# IGF1R ECD-TM-fp (human) [3] = target: IGF1R ECD-TM-fp (human)
# IGF1R ECD-TM-fp (human) [4] = assay: FRET or BRET; spectrally resolved two-photon FRET on living, serum-starved CHO cells; mTurquoise donor, EYFP acceptor; FRET efficiency per membrane pixel; with IGF1
# IGF1R ECD-TM-fp (human) [5] = assay: FRET or BRET; quantitative imaging FRET (QI-FRET) in plasma-membrane vesicles derived from transfected CHO cells; intrinsic FRET corrected for proximity FRET and donor-to-acceptor ratio; with IGF1
# [6] = target: IGF1R ECDΔL1-TM-fp (human); assay: FRET or BRET; quantitative imaging FRET (QI-FRET) in plasma-membrane vesicles derived from transiently co-transfected CHO cells; EYFP donor, mCherry acceptor; confocal microscopy at room temperature; intrinsic FRET corrected for proximity FRET and donor-to-acceptor ratio; without IGF1
# IGF1R ECD-TM-fp, sequence (P08069 741-935): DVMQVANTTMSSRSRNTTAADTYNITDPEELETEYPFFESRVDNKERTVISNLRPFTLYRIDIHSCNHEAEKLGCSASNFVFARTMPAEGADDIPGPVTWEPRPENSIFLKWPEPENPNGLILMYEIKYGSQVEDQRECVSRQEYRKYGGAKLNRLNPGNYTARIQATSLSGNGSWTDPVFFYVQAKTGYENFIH
# IGF1, sequence (P05019 49-118): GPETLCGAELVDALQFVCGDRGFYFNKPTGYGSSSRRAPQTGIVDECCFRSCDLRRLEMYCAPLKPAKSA
substance,measurement,setting,value
IGF1R TM-fp (domain or fragment),FRET efficiency per membrane pixel (peak of a two state distribution),IGF1R TM-fp (human),0.37 and 0.33
IGF1R ECD-TM-fp H905C (domain or fragment),intrinsic FRET efficiency (y intercept of a horizontal line),[1],0.38
IGF1R TM-icd H905C (domain or fragment),stoichiometry N,[2],2
IGF1 (from UniProt P05019 49-118) (ligand),"FRET efficiency between co-transfected donor- and acceptor-tagged IGF1R ECD-TM-fp in membranes of live CHO cells, with against without ligand",IGF1R ECD-TM-fp (human) [3],2 fold
IGF1R ECD-TM-fp (domain or fragment),FRET efficiency per membrane pixel (peak of a normal distribution),IGF1R ECD-TM-fp (human) [4],0.34
same,intrinsic FRET efficiency (y intercept of a horizontal line),IGF1R ECD-TM-fp (human) [5],0.34
IGF1R ECDΔL1-TM-fp (domain or fragment),intrinsic FRET efficiency (y intercept of a horizontal line),[6],0.36
